The record followed here is FireProtDB (doi:10.1016/j.jmb.2008.02.039).

The conditions of this data set: Thermococcus kodakarensis (strain ATCC BAA-918 / JCM 12380 / KOD1); pH 9; 50 °C; GdnHCl; CD; Tris-HCl 20 mM; reversible: Yes; whole UniProt chain shown.

B1: Ribonuclease HII wild type, O74035 (protein)
chain: MKIAGIDEAGRGPVIGPMVIAAVVVDENSLPKLEELKVRDSKKLTPKRREKLFNEILGVLDDYVILELPPDVIGSREGTLNEFEVENFAKALNSLKVKPDVIYADAADVDEERFARELGERLNFEAEVVAKHKADDIFPVVSAASILAKVTRDRAVEKLKEEYGEIGSGYPSDPRTRAFLENYYREHGEFPPIVRKGWKTLKKIAEKVESEKKAEERQATLDRYFRKV
Turning to B1, the denaturant m value is 5.64 kcal/mol/M, the “denaturant midpoint (higher = more stable)” value amounted to 1.85 M and the unfolding free energy was determined as 10.4 kcal/mol.
